Source: CN101538329A

B1: A10 单克隆噬菌体抗体 (phage-displayed human anti-Aβ scFv, clone A10) (scFv, part only; not given: linker, tag and phage fusion, not shown: small tags and cut ends; large carriers)
scFv (part 1 of 2), part: EVQLVQSGAEVKRPGSSVNVSCKASGGTLSNYGLSWVRQAPGQGLEWMGGIIPSFGPANYAQIFQGRVTITADESTNTAYMELRSLTSDDTAVYYCAREGGVGVATTYWLDPWGQGTTVTVSS
scFv (part 2 of 2), part: HFMLTQPHSVSESPGKTVTISCTRSSGSIASTYVHWYQQRPGTSPTTVIYEDNRRHSRVPDRFSGSIDSSSNSASLTISGLKTEDEGDYYCQSYDSTNAWVFGGGTKVTVLG
B2: F2 可溶性抗Aβ scFv (soluble scFv of clone F2 expressed in E. coli HB2151) (scFv, V domains shown, not shown: small tags and cut ends)
VH: B1 scFv (part 1 of 2), part
VL: B1 scFv (part 2 of 2), part
B3: A10 可溶性抗Aβ scFv (soluble scFv of clone A10 expressed in E. coli HB2151) (scFv, V domains shown, not shown: small tags and cut ends)
VH: B1 scFv (part 1 of 2), part
VL: B1 scFv (part 2 of 2), part
B4: F2 单克隆噬菌体抗体 (phage-displayed human anti-Aβ scFv, clone F2) (scFv, part only; not given: linker, tag and phage fusion, not shown: small tags and cut ends; large carriers)
scFv (part 1 of 2), part: B1 scFv (part 1 of 2), part
scFv (part 2 of 2), part: B1 scFv (part 2 of 2), part

Experiments:
[1] = target: β-淀粉样多肽 Aβ1-42 (beta-amyloid peptide, purified) (human) (UniProt P05067); assay: phage ELISA on coated Aβ, OD490, against negative control (2% MPBS)
[2] = target: β-淀粉样多肽 Aβ1-42 (beta-amyloid peptide, purified) (human) (UniProt P05067); assay: repeated phage ELISA on coated Aβ, OD490, against negative control
[3] = target: β-淀粉样多肽 Aβ1-42 (beta-amyloid peptide, purified) (human) (UniProt P05067); assay: ELISA on coated Aβ, culture supernatant fraction; induced against uninduced strain
[4] = target: β-淀粉样多肽 Aβ1-42 (beta-amyloid peptide, purified) (human) (UniProt P05067); assay: ELISA on coated Aβ, whole-cell protein fraction; induced against uninduced strain
[5] = target: β-淀粉样多肽 Aβ1-42 (beta-amyloid peptide, purified) (human) (UniProt P05067); assay: ELISA of soluble scFv fractions on coated Aβ, anti-c-myc detection; induced against uninduced strain

UniProt P05067, sequence (P05067 672-713 limits assumed): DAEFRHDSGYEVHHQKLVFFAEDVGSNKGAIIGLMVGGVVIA

Row | Binder | ELISA A值 fold over negative control [1] | ELISA A值 fold over negative control [2] | ELISA A值 fold of induced over uninduced strain [3] | ELISA A值 fold of induced over uninduced strain [4] | ELISA A值 fold of induced over uninduced strain [5]
1 | B1 | 2 fold | > 5 fold | – | – | –
2 | B2 | – | – | > 5 fold | > 5 fold | > 2 fold
3 | B3 | – | – | > 5 fold | > 5 fold | > 2 fold
4 | B4 | > 2 fold | > 5 fold | – | – | –
